Measured values as given in the supplement of paper PMC9876800.

System: peptide library, one residue held at a place counted from the S/T acceptor
Test: relative phosphorylation of the sub-library (ratio to the mean residue at this position); higher = residue favoured
Summary of the method: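 In 384-well plates, purified recombinant kinases (human or orthologue constructs) were incubated for 90 min under kinase-specific conditions with 50 μM biotinylated degenerate peptide sub-libraries and 50 μM ATP spiked with γ-32P-ATP. Each sub-library fixed a single residue at one position around a central Ser/Thr. Relative sub-library phosphorylation, measured by phosphorimaging and densitometry of streptavidin membrane spots, is given as a ratio to the mean residue at that position.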

MAP3K14, construct: aa327-673, human, sequence (Q99558 327-673, looked up): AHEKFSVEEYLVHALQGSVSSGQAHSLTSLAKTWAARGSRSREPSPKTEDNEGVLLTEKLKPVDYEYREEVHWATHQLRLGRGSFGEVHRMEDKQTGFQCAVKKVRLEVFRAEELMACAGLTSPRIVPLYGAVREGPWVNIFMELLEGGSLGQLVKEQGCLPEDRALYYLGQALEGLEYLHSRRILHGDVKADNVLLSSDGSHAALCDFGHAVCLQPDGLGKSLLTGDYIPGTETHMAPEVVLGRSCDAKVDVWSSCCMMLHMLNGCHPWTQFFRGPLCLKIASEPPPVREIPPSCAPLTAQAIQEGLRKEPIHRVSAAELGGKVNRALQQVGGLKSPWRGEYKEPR

SRPK3, construct: Full length, human (from UniProt Q9UPE1)
relative phosphorylation
Details	at +1	at +2	at +3	at +4	at -1	at -2	at -3	at -4	at -5
A fixed	0.905	1.14	0.591	0.865	1.08	1.46	0.594	0.904	0.946
D fixed	0.388	1.38	0.427	0.767	0.598	3.18	0.543	0.699	0.69
E fixed	0.501	1.15	0.377	0.67	0.731	1.53	0.451	0.818	0.718
F fixed	0.56	0.736	0.505	0.848	0.727	0.782	0.389	0.825	1.1
G fixed	0.767	0.962	0.719	1.03	1.05	0.997	0.429	0.929	1.05
H fixed	0.649	1.54	0.577	0.999	1.3	0.804	0.444	0.944	1.09
I fixed	0.877	0.777	0.413	0.739	0.696	0.471	0.351	0.865	0.92
K fixed	0.963	1.08	1.06	1.33	1.34	0.908	0.724	1.36	1.33
L fixed	1.09	0.601	0.41	0.846	0.924	0.551	0.346	0.791	0.785
M fixed	1.01	0.796	0.467	0.899	1.02	0.666	0.403	0.859	0.906
N fixed	0.674	1.31	0.592	1.04	0.833	0.938	0.417	0.83	0.861
P fixed	3.97	0.922	1.39	1.02	1.58	0.762	0.387	0.99	0.74
Q fixed	0.926	0.905	0.635	1.07	1.07	0.729	0.568	0.952	0.777
R fixed	1.48	1.35	7.34	2.07	1.76	1.31	9.8	2.63	2.11
V fixed	1.13	0.909	0.456	0.745	0.898	0.547	0.34	0.852	0.897
W fixed	0.574	0.701	0.541	1.18	0.579	0.638	0.39	0.881	0.977
Y fixed	0.537	0.734	0.496	0.876	0.818	0.723	0.429	0.867	1.1
pThr fixed	0.601	1.02	0.572	0.874	0.69	1.01	0.644	1.13	0.863
pTyr fixed	0.746	0.876	0.702	0.924	1.38	1.79	1.29	2.21	1.15

PRKCI, construct: Full length, human (from UniProt P41743)
relative phosphorylation
Details	at +1	at +2	at +3	at +4	at -1	at -2	at -3	at -4	at -5
A fixed	0.617	0.488	0.873	0.871	1.13	0.692	0.835	1.12	1
D fixed	0.136	0.156	0.275	0.43	0.343	0.184	0.208	0.464	0.499
E fixed	0.134	0.152	0.277	0.378	0.317	0.197	0.23	0.464	0.425
F fixed	1.85	0.543	0.961	0.688	0.607	0.995	1.06	0.998	1.39
G fixed	0.617	0.557	0.946	1.07	1.4	0.883	0.846	1.04	1.02
H fixed	0.755	1.42	1.24	1.2	0.896	1.17	1.01	1.1	1.05
I fixed	1.34	0.654	0.855	0.926	0.35	0.447	0.543	0.782	0.792
K fixed	1.93	2.63	2.28	2.33	2.57	1.52	1.86	1.71	1.71
L fixed	1.18	0.538	0.882	0.716	0.617	0.601	0.745	0.761	1.13
M fixed	1.74	0.873	0.722	0.745	1.02	0.878	0.915	0.883	0.814
N fixed	0.58	0.59	0.598	0.765	0.921	0.768	0.579	0.899	0.771
P fixed	0.445	0.401	0.699	1.11	0.731	0.423	0.603	0.75	0.79
Q fixed	0.79	0.655	0.659	0.863	1.12	0.813	0.698	0.859	0.788
R fixed	2.23	5.01	2.67	2.07	2.73	4.2	4.14	1.78	1.76
V fixed	1.04	0.643	0.792	0.774	0.607	0.478	0.655	0.935	0.89
W fixed	0.696	0.658	1.14	1.14	0.637	1.02	1.01	1.53	1.22
Y fixed	0.92	1.04	1.15	0.923	0.993	1.73	1.06	0.926	0.948
pThr fixed	0.598	0.355	0.444	0.621	0.312	0.388	0.638	0.775	0.716
pTyr fixed	0.324	0.334	0.539	0.442	0.309	0.349	0.391	0.388	0.599

MAP3K14, construct: aa327-673, human (from UniProt Q99558)
relative phosphorylation
Details	at +1	at +2	at +3	at +4	at -1	at -2	at -3	at -4	at -5
A fixed	0.858	0.835	0.87	0.88	0.975	1.06	0.893	1	0.972
D fixed	0.726	0.707	0.858	0.865	0.8	0.709	0.687	0.783	0.764
E fixed	0.775	0.682	0.769	0.786	0.755	0.73	0.705	0.877	0.735
F fixed	1.21	0.85	0.978	0.96	0.787	0.923	0.751	0.89	1.04
G fixed	0.867	0.83	0.956	1.04	1.09	1.01	0.925	1.02	0.917
H fixed	0.973	1.15	1.11	1.04	1.16	1.08	1.08	1.06	1.05
I fixed	1	0.886	0.795	0.924	0.66	0.713	0.64	0.804	0.879
K fixed	1.08	1.68	1.36	1.36	1.49	1.19	1.92	1.53	1.38
L fixed	1.09	0.908	0.971	1.02	0.874	0.78	0.731	0.896	1.23
M fixed	1.26	0.844	0.875	0.962	0.966	1.02	0.753	0.977	1.04
N fixed	0.909	0.978	1.18	1.09	1.19	0.954	0.904	1.02	0.911
P fixed	0.69	0.817	0.935	1.25	1.02	0.763	0.843	0.924	1.05
Q fixed	1.09	0.918	0.979	1.06	1.04	1.18	0.97	1.03	0.921
R fixed	1.2	2.11	1.49	1.23	1.63	1.94	2.81	1.49	1.43
V fixed	0.988	0.892	0.81	0.866	0.687	0.76	0.652	0.843	0.808
W fixed	1.21	0.909	1.09	0.827	0.814	1.12	0.939	0.938	0.945
Y fixed	1.06	0.998	0.983	0.841	1.07	1.07	0.793	0.931	0.921
pThr fixed	0.918	0.837	0.843	0.923	0.678	0.769	0.827	0.899	0.877
pTyr fixed	0.869	0.849	0.889	0.774	0.829	0.824	1.01	0.941	0.985
